Source: article PMC3629208, “Effective Identification of Akt Interacting Proteins by Two-Step Chemical Crosslinking, Co-Immunoprecipitation and Mass Spectrometry” (PLoS ONE, 2013)
Values belong to the binder of their own block, whether it stands above or below them.

Target: T1, Akt (protein kinase B), Akt1 (mouse (endogenous in Neuro 2A), UniProt P31750 1-480)
T1 construct: Akt1, mouse, endogenous in Neuro 2A cells, captured by a rabbit anti-Akt antibody; MS peptide assigned to Akt1 (gi/6753034); Bait of all co-IPs; The anti-Akt antibody may also capture other Akt isoforms; Cells were unstimulated or IGF-1 stimulated (phospho-T308 as the mark of active Akt); source: endogenous, Neuro 2A lysate
Test: co-IP; two-step crosslinking co-IP (DSS-fixed anti-Akt antibody, DSP-crosslinking of the bound complexes) from Neuro 2A lysate, western blot; cells with or without IGF-1 (10 ng/mL, 10 min); band intensity normalized to Akt level
Settings: partners not purified

T1 sequence (P31750 whole entry, canonical isoform): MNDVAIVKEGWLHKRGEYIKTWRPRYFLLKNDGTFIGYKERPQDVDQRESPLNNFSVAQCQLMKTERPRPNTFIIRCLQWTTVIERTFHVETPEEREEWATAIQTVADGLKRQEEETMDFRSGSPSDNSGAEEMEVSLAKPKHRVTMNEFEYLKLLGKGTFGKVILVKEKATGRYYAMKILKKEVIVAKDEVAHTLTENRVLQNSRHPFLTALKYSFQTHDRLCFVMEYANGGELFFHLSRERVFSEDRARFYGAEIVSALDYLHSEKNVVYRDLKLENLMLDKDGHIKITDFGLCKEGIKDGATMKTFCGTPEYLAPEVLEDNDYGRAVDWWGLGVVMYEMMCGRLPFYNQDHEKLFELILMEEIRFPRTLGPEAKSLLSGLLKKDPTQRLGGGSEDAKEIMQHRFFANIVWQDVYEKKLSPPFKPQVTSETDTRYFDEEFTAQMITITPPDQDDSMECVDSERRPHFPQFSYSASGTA

B2: ErbB3 binding protein 1 (EBP1, also called proliferation-associated protein 2G4) (natural protein, mouse (endogenous in Neuro 2A), UniProt P50580 1-394, looked up)
chain: MSGEDEQQEQTIAEDLVVTKYKMGGDIANRVLRSLVEASSSGVSVLSLCEKGDAMIMEETGKIFKKEKEMKKGIAFPTSISVNNCVCHFSPLKSDQDYILKEGDLVKIDLGVHVDGFIANVAHTFVIGVAQGTQVTGRKADVIKAAHLCAEAALRLVKPGNQNTQVTEAWNKVAHSFNCTPIEGMLSHQLKQHVIDGEKTIIQNPTDQQKKDHEKAEFEVHEVYAVDVLVSSGEGKAKDAGQRTTIYKRDPSKQYGLKMKTSRAFFSEVERRFDAMPFTLRAFEDEKKARMGVVECAKHELLQPFNVLYEKEGEFVAQFKFTVLLMPNGPMRITSGPFEPDLYKSEMEVQDAELKALLQSSASRKTQKKKKKKASKTVENATSGETLEENGAGD
notes: EBP1 (proliferation-associated protein 2G4), mouse, endogenous; gi 116283229, 42 kDa; source: endogenous, Neuro 2A lysate
fold increase of association, IGF-stimulated (active Akt) against unstimulated, normalized to Akt level: 2.4 fold

B4: extracellular regulated kinase-1 and -2 (ERK1/2) (natural protein, mouse (endogenous in Neuro 2A), UniProt P63085 1-358, looked up)
chain: MAAAAAAGPEMVRGQVFDVGPRYTNLSYIGEGAYGMVCSAYDNLNKVRVAIKKISPFEHQTYCQRTLREIKILLRFRHENIIGINDIIRAPTIEQMKDVYIVQDLMETDLYKLLKTQHLSNDHICYFLYQILRGLKYIHSANVLHRDLKPSNLLLNTTCDLKICDFGLARVADPDHDHTGFLTEYVATRWYRAPEIMLNSKGYTKSIDIWSVGCILAEMLSNRPIFPGKHYLDQLNHILGILGSPSQEDLNCIINLKARNYLLSLPHKNKVPWNRLFPNADSKALDLLDKMLTFNPHKRIEVEQALAHPYLEQYYDPSDEPIAEAPFKFDMELDDLPKEKLKELIFEETARFQPGYRS
notes: ERK1/2, mouse, endogenous; the MS entry is a single 42 kDa protein; source: endogenous, Neuro 2A lysate
fold change of association, IGF-stimulated against unstimulated, normalized to Akt level: 0.98 fold
fold increase of co-precipitated ERK1/2 with DSP-crosslinking against without, normalized to Akt level: 2.5 ± 0.2 fold

Continued, values first:

fold increase of association, IGF-stimulated (active Akt) against unstimulated, normalized to Akt level: 1.8 fold
B1: glycogen synthase kinase (GSK)-3β (enzyme, mouse (endogenous in Neuro 2A), UniProt Q9WV60 1-420, looked up)
chain: MSGRPRTTSFAESCKPVQQPSAFGSMKVSRDKDGSKVTTVVATPGQGPDRPQEVSYTDTKVIGNGSFGVVYQAKLCDSGELVAIKKVLQDKRFKNRELQIMRKLDHCNIVRLRYFFYSSGEKKDEVYLNLVLDYVPETVYRVARHYSRAKQTLPVIYVKLYMYQLFRSLAYIHSFGICHRDIKPQNLLLDPDTAVLKLCDFGSAKQLVRGEPNVSYICSRYYRAPELIFGATDYTSSIDVWSAGCVLAELLLGQPIFPGDSGVDQLVEIIKVLGTPTREQIREMNPNYTEFKFPQIKAHPWTKVFRPRTPPEAIALCSRLLEYTPTARLTPLEACAHSFFDELRDPNVKLPNGRDTPALFNFTTQELSSNPPLATILIPPHARIQAAASPPANATAASDTNAGDRGQTNNAASASASNST
notes: glycogen synthase kinase-3 beta, mouse, endogenous; gi 9790077, 47 kDa; source: endogenous, Neuro 2A lysate

fold change of association, IGF-stimulated against unstimulated, normalized to Akt level: 0.97 ± 0.1 fold
B3: nuclear distribution gene C (Nudc, also named nuclear migration gene C) (natural protein)
chain: not shown
notes: nuclear migration protein nudC, mouse, endogenous; gi 6754910, 38 kDa; source: endogenous, Neuro 2A lysate
